From patent publication US8278415B2, “Dimeric high affinity EGFR constructs and uses thereof” (Centocor, Inc., priority 2006, dated 2012)
In brackets after ≈: the same amount, converted by molar mass. Where two headings read alike, the source gives them in different places.

Legend:
sEGFR-MMB [1] = biological target: T1, sEGFR-MMB (Homo sapiens, UniProt P00533); assay: Phage ELISA on coated sEGFR-MMB; assay type: binding
T1 construct: made in house; host or cells: HEK 293E
Protocol: (§1) The protein solution was removed and wells were rinsed twice with Tris-Buffered Saline containing 0.05% Tween-20 (TBS-T) using a plate washer (Embla). The wells were blocked with Starting Block in TBS for 1 hr at room temperature and rinsed twice with TBS-T. An equal volume of phage supernatant and Starting Block in TBS were incubated in the wells for 1 hr at room temperature, and the wells were rinsed five times with TBS-T. Anti-M13/horseradish peroxidase conjugate (Amersham), diluted 1:5000 in Starting Block in TBS, was added into the wells and incubated for 1 hour at room temperature, and then the wells were rinsed five times with TBS-T. Finally, chemiluminescent peroxidase substrate (Roche) was added to the wells, and chemiluminescence was measured on a Tecan plate reader.
(§2) Phage were amplified in XL-1 Blue host cells and purified by precipitation with 6% polyethylene glycol-8000/0.5 M sodium chloride. The precipitated phage were resuspended in phosphate-buffered saline in a volume that was 1/100th the original culture volume. […] The binding reaction was incubated for 1 hr at room temperature, and then bound phage were detected with anti-M13/HRP as above. For ELISAs with biotinylated receptors, streptavidin at 5 μg/ml was coated in the wells overnight at 4° C. […] The wells were rinsed with TBS-T and then blocked with Starting Block. Bound phage were washed and detected with anti-M13/HRP as described above.
(§3) The plates were held overnight at room temperature, washed twice with TBST (0.5M Tris Base, 9% NaCl, 0.05% tween, pH 7.6), and loaded with 200 μL per well of Starting Block (Pierce). […] The plates were held at room temperature for 1.5 hours for blocking Plates were then washed twice with TBST and phage were added. The phage solutions were crude phage supernatant from overnight cultures diluted four-fold with Starting Block. After a one-hour incubation, the plates were washed thrice with TBST and 100 μL of a 1:5000 dilution of phage binding antibody conjugate (α-M13-HRP) was added to the wells. EGF was added if applicable. After a one-hour incubation the plates were washed five times with TBST, 100 μL of POD (BM Chemiluminescence ELISA substrate; Roche Applied Science) was added, and chemiluminescene recorded.

b-sEGFR-His = biological target: T2, b-sEGFR-His (Homo sapiens, UniProt P00533); assay: Phage ELISA on biotinylated sEGFR-His6 captured on streptavidin; assay type: binding; details: biotinylated and immobilized on streptavidin
T2 construct: made in house; host or cells: HEK293E
Protocol: as §2

sEGFR-MMB [2] = biological target: T1, sEGFR-MMB; assay: Competitive phage ELISA (EGF, TGF-α, IMC-c225 as competitive agent); assay type: binding
Protocol: as §2

A431 cells = assay: Flow cytometry of phage binding to A431 cells; assay type: cell-based, human; details: for binding to A431 tumor cells: anti-phage-FITC
Protocol: (§4) To evaluate whether the selected peptides from phage display can bind to tumor cells that overexpress EGFR, A431 cells (epidermoid cancer) or an EGFR negative tumor cells, MCF-7 (breast carcinoma) were tested in a flow cytometry assay using fluorescence detection (FACS). For P145, PP146 and their control phage, 2.5×10^5 A431 cells were resuspended in 25 μl of flow staining buffer (dPBS with 1% BSA, 0.09% sodium azide) and incubated with 25 μl of phage clones for 1 hour at 4° C. […] Cells were washed two times with flow staining buffer and then incubated with 0.5 μg of mouse anti M13/fd/Fl filamentous phages monoclonal antibody conjugated to FITC (Fitzgerald Industries International, Inc. Concord, Mass.) for 45 minutes at 4° C. Cells were washed two times with flow staining buffer and acquired by FACSCalibur (BD, Franklin Lakes, N.J.) to detect bound phages on tumor cell surface.
A431 cells (epidermoid cancer) which overexpress EGFR and EGFR-negative tumor cells, MCF-7 (breast carcinoma) were tested in a flow cytometry assay. Tumor cells (A431 and MCF-7) were harvested with 0.25% tyrpsin-EDTA and washed twice with FACS staining buffer (dPBS with 1% BSA, 0.09% sodium azide). […] After binding at 4° C., cells were washed twice with FACS staining buffer to remove unbound phage and then incubated with 0.5 μg of mouse anti-M13 monoclonal antibody conjugated to FITC (Fitzgerald Industries International, Inc. Concord, Mass.) for 1 hour at 4° C. Mouse anti-M13-FITC incubated with cells without phage was used as background binding. Cells were washed twice with FACS staining buffer to remove unbound detection antibody.

MDA-MB-468 = assay: cells; details: Homo sapiens
EGF + sEGFR-MMB Complex = biological target: T3, EGF + sEGFR-MMB Complex (Homo sapiens, UniProt P00533); assay: Phage ELISA on sEGFR-MMB in the presence of EGF; assay type: binding
T3 construct: made in house
Protocol: as §3

sEGFR-His6 = biological target: T4, sEGFR-His6 (Homo sapiens, UniProt P00533); assay: Phage ELISA on coated sEGFR-His6; assay type: binding
T4 construct: made in house; host or cells: HEK293E
Protocol: as §3

Control-MMB = Control-MMB (Homo sapiens, UniProt P01857); assay: Phage ELISA on Control-MMB; assay type: binding
Protocol: as §1
The plates were held overnight at room temperature, washed twice with TBST (0.5M Tris Base, 9% NaCl, 0.05% tween, pH 7.6), and loaded with 200 μL per well of Starting Block (Pierce). […] The plates were held at room temperature for 1.5 hours for blocking Plates were then washed twice with TBST and phage were added. […] After a one-hour incubation the plates were washed five times with TBST, 100 μL of POD (BM Chemiluminescence ELISA substrate; Roche Applied Science) was added, and chemiluminescene recorded.

MCF-7 = assay: Flow cytometry of phage binding to MCF-7 cells; assay type: cell-based, human
Protocol: as §4
A431 cells (epidermoid cancer) which overexpress EGFR and EGFR-negative tumor cells, MCF-7 (breast carcinoma) were tested in a flow cytometry assay. Tumor cells (A431 and MCF-7) were harvested with 0.25% tyrpsin-EDTA and washed twice with FACS staining buffer (dPBS with 1% BSA, 0.09% sodium azide). […]

b-sEGFR-MMB = biological target: T5, b-sEGFR-MMB (Homo sapiens, UniProt P00533); assay: Phage ELISA on biotinylated sEGFR-MMB captured on streptavidin; assay type: binding
T5 construct: made in house; host or cells: HEK 293E
Protocol: as §2

Row | Molecule | binding to sEGFR-MMB (in words) (sEGFR-MMB [1]) | binding to sEGFR-His6 (in words) (b-sEGFR-His) | competition with EGF, TGF-α, IMC-c225 (in words) (sEGFR-MMB [2]) | binding to A431 relative to positive control EGF phage (A431 cells) | binding to A431 tumor cells (A431 cells) | further results
1 | LPDDSLPELICKVRG (Random peptide) [P175] | bound sEGFR-MMB | not sEGFR-His6 | did not compete with EGFR ligands |  |  | 
2 | TLCRSFFHPLCYA (Random peptide) [P146] |  |  |  | weaker than that exhibited by a positive control phage that displayed EGF on pIII | displayed binding to A431 tumor cells | 
3 | VLCHRYYHPICYT [P145] |  |  |  | weaker than that exhibited by a positive control phage that displayed EGF on pIII | displayed binding to A431 tumor cells | 
4 | SGCLDALWQCVY (Random peptide) [P174] | bound both sEGFR-MMB and sEGFR-His6 | bound both sEGFR-MMB and sEGFR-His6 | not inhibited by the EGFR ligands tested | comparable to that by a positive control phage that displayed EGF on pIX | displayed binding to A431 tumor cells | 
5 | COc1cccc2c1C(=O)c1c(O)c3c(c(O)c1C2=O)C[C@@](O)(C(=O)CO)C[C@@H]3O[C@H]1C[C@H](N)[C@H](O)[C@H](C)O1 [Doxorubicin] |  |  |  |  |  | IC50 (MDA-MB-468; MDA-MB-468, read-out: IC50 D4): 2.5 µg/mL (≈ 4.6 µM); IC50 (MDA-MB-468; MDA-MB-468, read-out: IC50 D6): < 1.6 µg/mL
6 | DPCTWEVWGRECLQ [P190] | binds weakly |  | did not compete with EGF or TGF-alpha |  | bind to A431 | Relative Signal (sEGFR-MMB [1]; construct SEGFR-MMB): 3937 ± 335; binding to dimeric EGFR in the presence of EGF or TGF-a (EGF + sEGFR-MMB Complex; pIX display): increased in the presence of EGF or TGF-a; binding to the complex between EGF and sEGFR-MMB (in words) (EGF + sEGFR-MMB Complex; phage ELISA): binds well; Relative Signal (EGF + sEGFR-MMB Complex; phage ELISA, construct SEGFR-MMB + EGF): 29408 ± 259; binding to sEGFR-His6 (in words) (sEGFR-His6; coated monomeric sEGFR): virtually no binding; Relative Signal (sEGFR-His6; construct sEGFR-His6): 6; binding to Control-MMB (in words) (Control-MMB): fails to bind; binding to A431 cells in the presence of EGF (A431 cells): increased; binding to A431 cells in the presence of EGF and cetuximab (A431 cells): decreases; binding to MCF-7 (MCF-7): not to MCF-7
7 | GPCVLIRDYYLLCLE (Random peptide) [P179] | bound sEGFR-MMB when it was passively immobilized in ELISA wells |  |  |  |  | binding to biotinylated sEGFR-MMB captured on streptavidin (in words) (b-sEGFR-MMB): not biotinylated sEGFR-MMB that had been captured on streptavidin
8 | KTCVSTTFDLWFVCFA (Random peptide) [P176] | bound both sEGFR-MMB and sEGFR-His6 | bound both sEGFR-MMB and sEGFR-His6 | competitive with IMC-c225 (cetuximab), EGF, and TGF-α | comparable to that by a positive control phage that displayed EGF on pIX | displayed binding to A431 tumor cells | 
